Drawing on US20120121587A1 (Chugai, published 2012), this text covers Kd for 18 molecules.

For orientation: Kd means a measure of binding affinity in units of concentration.

T1: Human recombinant AXL-FND1 (GST-FND1), from pET-41b(+) (human, UniProt P30530 225-331)
T1 construct: Expressed in E. coli, purified on Glutathione Sepharose; analyte in all Biacore measurements; GST put first by the usual layout of pET-41; not shown: GST-tag of vector pET-41b(+) (Novagen)
T1 sequence (looked up): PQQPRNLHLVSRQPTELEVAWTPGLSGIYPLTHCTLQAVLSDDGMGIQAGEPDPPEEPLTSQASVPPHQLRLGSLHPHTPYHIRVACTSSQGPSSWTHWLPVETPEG

B1: H9/L29 (antibody, human IgG1, kappa)
heavy: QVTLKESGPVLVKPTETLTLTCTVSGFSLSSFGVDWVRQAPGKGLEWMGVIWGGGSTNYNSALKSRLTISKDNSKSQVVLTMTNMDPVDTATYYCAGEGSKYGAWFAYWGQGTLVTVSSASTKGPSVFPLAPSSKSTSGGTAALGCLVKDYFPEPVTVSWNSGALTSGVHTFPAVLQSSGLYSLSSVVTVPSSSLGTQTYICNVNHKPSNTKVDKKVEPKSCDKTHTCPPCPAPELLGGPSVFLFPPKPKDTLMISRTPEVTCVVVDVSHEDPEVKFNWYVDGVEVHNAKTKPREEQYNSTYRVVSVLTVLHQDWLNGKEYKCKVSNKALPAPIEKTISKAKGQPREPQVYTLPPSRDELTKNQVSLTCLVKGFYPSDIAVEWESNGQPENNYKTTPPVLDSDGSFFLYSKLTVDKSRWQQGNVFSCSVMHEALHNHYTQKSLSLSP
light: DVVMTQSPLSLPVTLGQPASISCRSSQNIVHTNGNTYLEWYQQKPGKAPELLIYKVSNRFSGVPDRFSGSGSGTDFTLKISRVEAEDVGVYYCFQGSHIPFTFGRGTKLEIKRTVAAPSVFIFPPSDEQLKSGTASVVCLLNNFYPREAKVQWKVDNALQSGNSQESVTEQDSKDSTYSLSSTLTLSKADYEKHKVYACEVTHQGLSSPVTKSFNRGEC
B2: H18/L0 (antibody, human IgG1, kappa, V domains shown)
VH: QVTLKESGPVLVKPTETLTLTCTVSGFSLSEFGVDWVRQAPGKGLEWMGVIWGGGSTNYNSALKSRLTISKDNSKSQVVLTMTNMDPVDTATYYCAGEGSKYGAWFAYWGQGTLVTVSS
VL: DVVMTQSPLSLPVTLGQPASISCRSSQNIVHTNGNTYLEWYQQKPGKAPELLIYKVSNRFSGVPDRFSGSGSGTDFTLKISRVEAEDVGVYYCFQGSHIPFTFGQGTKLEIKR
B3: H26/L10 (antibody, human IgG1, kappa)
heavy: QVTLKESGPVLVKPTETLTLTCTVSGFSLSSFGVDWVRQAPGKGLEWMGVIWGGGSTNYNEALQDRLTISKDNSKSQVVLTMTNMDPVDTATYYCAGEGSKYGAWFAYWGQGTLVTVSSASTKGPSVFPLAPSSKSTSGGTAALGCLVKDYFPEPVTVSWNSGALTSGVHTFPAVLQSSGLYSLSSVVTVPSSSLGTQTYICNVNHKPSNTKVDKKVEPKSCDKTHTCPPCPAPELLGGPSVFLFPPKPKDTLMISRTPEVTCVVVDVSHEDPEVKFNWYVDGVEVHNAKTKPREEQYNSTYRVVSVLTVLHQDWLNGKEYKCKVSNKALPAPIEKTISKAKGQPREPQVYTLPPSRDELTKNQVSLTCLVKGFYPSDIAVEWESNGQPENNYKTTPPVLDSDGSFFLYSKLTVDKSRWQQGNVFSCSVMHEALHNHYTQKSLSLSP
light: DVVMTQSPLSLPVTLGQPASISCRSSQNIVHTNGNTYLEWYQQKPGKAPELLIYKVSNRFSGVPDRFSGSGSGTDFTLKISRVEAEDVGVYYCFQGSHIPFTFGQGTKVEIERTVAAPSVFIFPPSDEQLKSGTASVVCLLNNFYPREAKVQWKVDNALQSGNSQESVTEQDSKDSTYSLSSTLTLSKADYEKHKVYACEVTHQGLSSPVTKSFNRGEC
B4: H21/L0 (antibody, human IgG1, kappa, V domains shown)
VH: QVTLKESGPVLVKPTETLTLTCTVSGFSLSSFGVDWVRQAPGKGLEWMGVIWGGGSTNYNEALKSRLTISKDNSKSQVVLTMTNMDPVDTATYYCAGEGSKYGAWFAYWGQGTLVTVSS
VL: DVVMTQSPLSLPVTLGQPASISCRSSQNIVHTNGNTYLEWYQQKPGKAPELLIYKVSNRFSGVPDRFSGSGSGTDFTLKISRVEAEDVGVYYCFQGSHIPFTFGQGTKLEIKR
B5: H9/L31 (antibody, human IgG1, kappa)
heavy: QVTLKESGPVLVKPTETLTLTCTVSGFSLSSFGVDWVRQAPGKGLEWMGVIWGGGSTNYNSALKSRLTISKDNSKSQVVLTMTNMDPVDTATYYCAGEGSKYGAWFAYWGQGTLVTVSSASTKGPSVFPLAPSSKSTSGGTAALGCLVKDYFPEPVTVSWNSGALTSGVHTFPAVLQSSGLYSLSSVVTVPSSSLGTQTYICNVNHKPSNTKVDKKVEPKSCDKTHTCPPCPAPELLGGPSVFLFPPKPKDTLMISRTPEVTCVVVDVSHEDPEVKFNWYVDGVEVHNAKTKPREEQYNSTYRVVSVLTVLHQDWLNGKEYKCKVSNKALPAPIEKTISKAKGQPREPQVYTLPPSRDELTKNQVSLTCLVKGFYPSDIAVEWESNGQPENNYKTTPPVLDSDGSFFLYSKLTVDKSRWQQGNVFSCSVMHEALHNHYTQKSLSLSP
light: DVVMTQSPLSLPVTLGQPASISCRSSRNIVHTNGNTYLEWYQQKPGKAPKLLIYKVSNRFSGVPDRFSGSGSGTDFTLKISRVEAEDVGVYYCFQGSHIPFTFGQGTKLEIKRTVAAPSVFIFPPSDEQLKSGTASVVCLLNNFYPREAKVQWKVDNALQSGNSQESVTEQDSKDSTYSLSSTLTLSKADYEKHKVYACEVTHQGLSSPVTKSFNRGEC
B6: H20/L0 (antibody, human IgG1, kappa, V domains shown)
VH: QVTLKESGPVLVKPTETLTLTCTVSGFSLSSFGVDWVRQPPGEGLEWIGVIWGGGSTNYNSALKSRLTISKDNSKSQVVLTMTNMDPVDTATYYCAGEGSKYGAWFAYWGQGTLVTVSS
VL: DVVMTQSPLSLPVTLGQPASISCRSSQNIVHTNGNTYLEWYQQKPGKAPELLIYKVSNRFSGVPDRFSGSGSGTDFTLKISRVEAEDVGVYYCFQGSHIPFTFGQGTKLEIKR
B7: H9/L34 (antibody, human IgG1, kappa)
heavy: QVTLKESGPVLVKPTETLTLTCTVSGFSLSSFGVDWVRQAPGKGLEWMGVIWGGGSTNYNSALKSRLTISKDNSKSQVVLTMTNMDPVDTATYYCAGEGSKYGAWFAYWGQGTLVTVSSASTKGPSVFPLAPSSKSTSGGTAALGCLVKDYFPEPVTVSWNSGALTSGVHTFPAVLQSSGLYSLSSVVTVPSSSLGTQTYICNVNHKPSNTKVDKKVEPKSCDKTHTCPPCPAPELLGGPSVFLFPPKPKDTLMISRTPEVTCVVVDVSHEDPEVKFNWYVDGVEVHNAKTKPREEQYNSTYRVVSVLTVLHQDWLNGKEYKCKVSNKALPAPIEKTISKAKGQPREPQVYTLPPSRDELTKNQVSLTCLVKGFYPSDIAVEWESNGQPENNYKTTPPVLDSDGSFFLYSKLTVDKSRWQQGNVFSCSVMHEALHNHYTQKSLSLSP
light: DVVMTQSPLSLPVTLGRPASISCRSSRNIVHTNGNTYLEWYQQKPGKAPKLLIYKVSNRFSGVPDRFSGSGSGTDFTLKISRVEAEDVGVYYCFQGSHIPFTFGQGTKLEIKRTVAAPSVFIFPPSDEQLKSGTASVVCLLNNFYPREAKVQWKVDNALQSGNSQESVTEQDSKDSTYSLSSTLTLSKADYEKHKVYACEVTHQGLSSPVTKSFNRGEC
B8: H19/L0 (antibody, human IgG1, kappa, V domains shown)
VH: QVTLKESGPVLVKPTETLTLTCTVSGFSLSSFGVDWVRQAPGQGLEWMGVIWGGGSTNYNSALKSRLTISKDNSKSQVVLTMTNMDPVDTATYYCAGEGSKYGAWFAYWGQGTLVTVSS
VL: DVVMTQSPLSLPVTLGQPASISCRSSQNIVHTNGNTYLEWYQQKPGKAPELLIYKVSNRFSGVPDRFSGSGSGTDFTLKISRVEAEDVGVYYCFQGSHIPFTFGQGTKLEIKR
B9: H25/L0 (antibody, human IgG1, kappa, V domains shown)
VH: QVTLKESGPVLVKPTETLTLTCTVSGFSLSSFGVDWVRQAPGKGLEWMGVIWGGGSTNYNSALQDRLTISKDNSKSQVVLTMTNMDPVDTATYYCAGEGSKYGAWFAYWGQGTLVTVSS
VL: DVVMTQSPLSLPVTLGQPASISCRSSQNIVHTNGNTYLEWYQQKPGKAPELLIYKVSNRFSGVPDRFSGSGSGTDFTLKISRVEAEDVGVYYCFQGSHIPFTFGQGTKLEIKR
B10: H23/L0 (antibody, human IgG1, kappa, V domains shown)
VH: QVTLKESGPVLVKPTETLTLTCTVSGFSLSSFGVDWVRQAPGKGLEWMGVIWGGGSTNYNSALQSRLTISKDNSKSQVVLTMTNMDPVDTATYYCAGEGSKYGAWFAYWGQGTLVTVSS
VL: DVVMTQSPLSLPVTLGQPASISCRSSQNIVHTNGNTYLEWYQQKPGKAPELLIYKVSNRFSGVPDRFSGSGSGTDFTLKISRVEAEDVGVYYCFQGSHIPFTFGQGTKLEIKR
B11: H22/L0 (antibody, human IgG1, kappa, V domains shown)
VH: QVTLKESGPVLVKPTETLTLTCTVSGFSLSSFGVDWVRQAPGKGLEWMGVIWGGGSTNYNSELKSRLTISKDNSKSQVVLTMTNMDPVDTATYYCAGEGSKYGAWFAYWGQGTLVTVSS
VL: DVVMTQSPLSLPVTLGQPASISCRSSQNIVHTNGNTYLEWYQQKPGKAPELLIYKVSNRFSGVPDRFSGSGSGTDFTLKISRVEAEDVGVYYCFQGSHIPFTFGQGTKLEIKR
B12: H26/L12 (antibody, human IgG1, kappa)
heavy: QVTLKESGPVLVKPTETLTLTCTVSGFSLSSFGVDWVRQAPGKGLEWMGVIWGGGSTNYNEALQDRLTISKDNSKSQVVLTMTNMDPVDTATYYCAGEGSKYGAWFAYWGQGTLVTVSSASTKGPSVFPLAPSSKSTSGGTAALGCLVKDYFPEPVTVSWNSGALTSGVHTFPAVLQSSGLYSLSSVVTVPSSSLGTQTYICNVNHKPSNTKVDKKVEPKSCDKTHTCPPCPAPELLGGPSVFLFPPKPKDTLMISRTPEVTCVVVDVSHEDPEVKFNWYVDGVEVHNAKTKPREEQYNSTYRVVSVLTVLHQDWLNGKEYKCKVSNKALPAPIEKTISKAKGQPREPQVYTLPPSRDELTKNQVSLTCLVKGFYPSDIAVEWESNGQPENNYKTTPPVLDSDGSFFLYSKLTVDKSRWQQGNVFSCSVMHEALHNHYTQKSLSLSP
light: DVVMTQSPLSLPVTLGQPASISCQSSQNIVHTNGNTYLEWYQQKPGEAPELLIYKVSNRFSGVPDRFSGSGSGTDFTLKISRVEAEDVGVYYCFQGSHIPFTFGQGTKVEIERTVAAPSVFIFPPSDEQLKSGTASVVCLLNNFYPREAKVQWKVDNALQSGNSQESVTEQDSKDSTYSLSSTLTLSKADYEKHKVYACEVTHQGLSSPVTKSFNRGEC
B13: H26/L0 (antibody, human IgG1, kappa)
heavy: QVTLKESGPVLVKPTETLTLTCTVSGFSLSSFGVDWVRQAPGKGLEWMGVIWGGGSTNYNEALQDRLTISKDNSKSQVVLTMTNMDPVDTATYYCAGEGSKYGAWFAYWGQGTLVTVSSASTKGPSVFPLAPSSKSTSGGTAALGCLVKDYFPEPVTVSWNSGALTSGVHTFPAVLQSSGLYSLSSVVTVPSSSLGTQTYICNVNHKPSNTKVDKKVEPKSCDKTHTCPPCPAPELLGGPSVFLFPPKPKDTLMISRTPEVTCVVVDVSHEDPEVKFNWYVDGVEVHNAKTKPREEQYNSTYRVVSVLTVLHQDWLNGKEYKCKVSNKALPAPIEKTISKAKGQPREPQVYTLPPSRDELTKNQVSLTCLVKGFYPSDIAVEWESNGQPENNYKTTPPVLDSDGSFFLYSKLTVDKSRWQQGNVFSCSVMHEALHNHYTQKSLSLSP
light: DVVMTQSPLSLPVTLGQPASISCRSSQNIVHTNGNTYLEWYQQKPGKAPELLIYKVSNRFSGVPDRFSGSGSGTDFTLKISRVEAEDVGVYYCFQGSHIPFTFGQGTKLEIKRTVAAPSVFIFPPSDEQLKSGTASVVCLLNNFYPREAKVQWKVDNALQSGNSQESVTEQDSKDSTYSLSSTLTLSKADYEKHKVYACEVTHQGLSSPVTKSFNRGEC
B14: H9/L37 (antibody, human IgG1, kappa)
heavy: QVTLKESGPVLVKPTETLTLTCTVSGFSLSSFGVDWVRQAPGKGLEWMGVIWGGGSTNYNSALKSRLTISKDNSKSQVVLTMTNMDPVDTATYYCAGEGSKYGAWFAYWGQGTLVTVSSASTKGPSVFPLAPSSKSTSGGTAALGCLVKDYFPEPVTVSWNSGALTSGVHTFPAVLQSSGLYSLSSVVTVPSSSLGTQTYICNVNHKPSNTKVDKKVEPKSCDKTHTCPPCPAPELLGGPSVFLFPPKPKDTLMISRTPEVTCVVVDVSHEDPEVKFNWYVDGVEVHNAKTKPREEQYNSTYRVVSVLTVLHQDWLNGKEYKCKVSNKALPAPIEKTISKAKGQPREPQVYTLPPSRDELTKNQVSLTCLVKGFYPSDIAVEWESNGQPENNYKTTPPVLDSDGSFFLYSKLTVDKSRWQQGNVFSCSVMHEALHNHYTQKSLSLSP
light: DVVMTQSPLSLPVTLGRPASISCRSSRNIVHTNGNTYLEWYQQKPGKAPKLLIYKVSNRFSGVPDRFSGSGSGTDFTLKISRVEAEDVGVYYCFQGSHIPFTFGRGTKLEIKRTVAAPSVFIFPPSDEQLKSGTASVVCLLNNFYPREAKVQWKVDNALQSGNSQESVTEQDSKDSTYSLSSTLTLSKADYEKHKVYACEVTHQGLSSPVTKSFNRGEC
B15: H26/L11 (antibody, human IgG1, kappa)
heavy: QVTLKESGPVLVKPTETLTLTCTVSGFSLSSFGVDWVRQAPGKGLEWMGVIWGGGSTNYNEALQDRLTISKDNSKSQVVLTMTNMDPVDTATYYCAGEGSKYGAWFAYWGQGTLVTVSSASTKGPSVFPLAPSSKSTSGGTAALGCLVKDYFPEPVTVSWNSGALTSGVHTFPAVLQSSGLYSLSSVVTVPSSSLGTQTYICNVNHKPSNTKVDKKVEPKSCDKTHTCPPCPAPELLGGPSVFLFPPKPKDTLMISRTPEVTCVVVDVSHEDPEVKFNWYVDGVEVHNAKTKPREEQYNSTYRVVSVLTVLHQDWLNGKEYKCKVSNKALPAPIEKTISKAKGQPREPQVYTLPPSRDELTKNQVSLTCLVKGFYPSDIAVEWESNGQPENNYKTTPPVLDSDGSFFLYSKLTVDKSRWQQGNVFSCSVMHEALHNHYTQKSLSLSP
light: DVVMTQSPLSLPVTLGQPASISCQSSQNIVHTNGNTYLEWYQQKPGKAPELLIYKVSNRFSGVPDRFSGSGSGTDFTLKISRVEAEDVGVYYCFQGSHIPFTFGQGTKVEIERTVAAPSVFIFPPSDEQLKSGTASVVCLLNNFYPREAKVQWKVDNALQSGNSQESVTEQDSKDSTYSLSSTLTLSKADYEKHKVYACEVTHQGLSSPVTKSFNRGEC
B16: H9/L35 (antibody, human IgG1, kappa)
heavy: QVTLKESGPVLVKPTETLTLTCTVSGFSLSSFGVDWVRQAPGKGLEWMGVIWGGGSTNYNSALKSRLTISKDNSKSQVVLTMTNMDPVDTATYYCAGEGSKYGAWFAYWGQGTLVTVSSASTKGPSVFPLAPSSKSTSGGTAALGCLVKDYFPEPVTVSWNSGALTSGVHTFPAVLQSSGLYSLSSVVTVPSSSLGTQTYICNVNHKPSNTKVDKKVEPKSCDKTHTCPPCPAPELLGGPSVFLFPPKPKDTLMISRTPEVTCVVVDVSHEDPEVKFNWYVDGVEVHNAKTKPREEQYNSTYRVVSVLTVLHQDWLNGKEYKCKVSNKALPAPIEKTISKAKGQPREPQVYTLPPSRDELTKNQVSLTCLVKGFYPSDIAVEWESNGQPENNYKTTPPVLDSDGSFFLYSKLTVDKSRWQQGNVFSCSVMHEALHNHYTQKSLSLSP
light: DVVMTQSPLSLPVTLGQPASISCRSSRNIVHTNGNTYLEWYQQKPGKAPKLLIYKVSNRFSGVPDRFSGSGSGTDFTLKISRVEAEDVGVYYCFQGSHIPFTFGRGTKLEIKRTVAAPSVFIFPPSDEQLKSGTASVVCLLNNFYPREAKVQWKVDNALQSGNSQESVTEQDSKDSTYSLSSTLTLSKADYEKHKVYACEVTHQGLSSPVTKSFNRGEC
B17: H24/L0 (antibody, human IgG1, kappa, V domains shown)
VH: QVTLKESGPVLVKPTETLTLTCTVSGFSLSSFGVDWVRQAPGKGLEWMGVIWGGGSTNYNSALKDRLTISKDNSKSQVVLTMTNMDPVDTATYYCAGEGSKYGAWFAYWGQGTLVTVSS
VL: DVVMTQSPLSLPVTLGQPASISCRSSQNIVHTNGNTYLEWYQQKPGKAPELLIYKVSNRFSGVPDRFSGSGSGTDFTLKISRVEAEDVGVYYCFQGSHIPFTFGQGTKLEIKR
B18: H17/L0 (antibody, human IgG1, kappa, V domains shown)
VH: QVTLKESGPVLVKPTETLTLTCTVSGFSLSDFGVDWVRQAPGKGLEWMGVIWGGGSTNYNSALKSRLTISKDNSKSQVVLTMTNMDPVDTATYYCAGEGSKYGAWFAYWGQGTLVTVSS
VL: DVVMTQSPLSLPVTLGQPASISCRSSQNIVHTNGNTYLEWYQQKPGKAPELLIYKVSNRFSGVPDRFSGSGSGTDFTLKISRVEAEDVGVYYCFQGSHIPFTFGQGTKLEIKR

In this assay the target is T1, Human recombinant AXL-FND1 (GST-FND1), …. The experiment in a line: SPR (Biacore T100): antibody captured on Protein A, GST-FND1 as analyte. As to the method:
Kinetic analyses of antigen-antibody reactions of humanized AXL antibodies were carried out using Biacore T100 (BIACORE). rec-Protein A (Zymed) (hereinafter, Protein A) was immobilized onto a sensor chip, various antibodies were bound to it, then an antigen as the analyte was flushed to measure the antibody-antigen interaction. Human recombinant AXL-FND1 (prepared in 2-2; hereinafter referred to as GST-FND1) prepared at various concentrations was used as the antigen. From the sensorgrams obtained through the measurements, kinetic parameters, namely binding rate constant kₐ (1/Ms) and dissociation rate constant kd (1/s), were calculated, and Kd (M) was calculated based on these values. Biacore T100 Evaluation Software (BIACORE) was used to calculate each of the parameters.
The sensor chips were produced by immobilizing approximately 3000 RU of Protein A onto CM5 (BIACORE) by amine coupling. Using the produced sensor chip, kinetic analyses were carried out on the interaction between the Protein A-bound antibodies and GST-FND1. HBS-EP+ was used as the running buffer, and the flow rate was set to 30 μL/min. Each antibody was prepared at 1 μg/mL using the running buffer, and was subjected to binding with Protein A for two minutes. GST-FND1 as the analyte was prepared at 0.5 and 2.0 μg/mL using HBS-EP+. Measurements were carried out by first binding the various humanized AXL antibodies, chimeric AXL antibodies, or mouse AXL antibodies of interest to Protein A, then applying an analyte solution to them for a two-minute interaction, and then switching to HBS-EP+ (BIACORE) for a two-minute measurement of the dissociation phase. After completion of measurement of the dissociation phase, 30 μL of 10 mM glycine-HCl (pH 2.0) was used for washing to regenerate the sensor chip. Such binding, dissociation, and regeneration were defined as one cycle of analysis. All experiments were performed at 25° C.
Affinity evaluation of each of the variants by Biacore was carried out by the method of Example 2.
(SPR reads the build-up and loss of mass on a sensor chip optically.)
With B1, the Kd amounted to 3.49 nM.
The result for B2 reads 4.31 nM; that for B3, 2.38 nM.
The result for B4 reads 2.35 nM.
In the case of B5, the Kd was found to be 2.46 nM.
The result for B6 reads 3.21 nM; that for B7, 2.8 nM.
With B8, the Kd amounted to 2.63 nM.
Turning to B9, the Kd worked out at 2.5 nM.
To B10 belongs 2.39 nM.
The result for B11 reads 3.14 nM; that for B12, 2.79 nM; that for B13, 2.5 nM.
On to B14, for which the Kd is 2.69 nM.
B15: the Kd was determined as 2.71 nM.
The result for B16 reads 2.37 nM; that for B17, 2.56 nM.
As for B18, the Kd came out at 3.46 nM.
